These results are taken from article PMC6595180.

Assay [1] deals with BG505 SOSIP.664 gp140 trimer (HIV-1 (BG505)). As to the kind of experiment: AUC; sedimentation velocity, 20°C, 40,000 rpm, detection at 280 nm, 0.5 mg/mL in formulation buffer (20 mM Tris, 100 mM NaCl pH 7.5); continuous c(s) distribution; also after 0, 1 and 5 freeze-thaw cycles.
Assay [2] deals with BG505 SOSIP.v4.1-GT1.1 gp140 trimer (HIV-1 (BG505)). The assay is described as above.

Broadly, the stoichiometry N is the number of molecules, sites or subunits per partner or assembly. As to BG505 SOSIP.664 gp140 trimer (complex), the stoichiometry N in assay [1] was 3.

In the case of “BG505 SOSIP.v4.1-GT1.1 gp140 trimer (complex)”, the stoichiometry N in assay [2] turned out to be 3.
